In patent publication USRE50880 (Kymab Limited, dated 2026):

Biological target: Recombinant Human OX40L (Leader sequence, Isoleucine Zipper and FLAG Sequence Included) (human)
Assay: cell-based or functional assay

Chain of Recombinant Human OX40L (Leader sequence, Isoleucine Zipper and FLAG Sequence Included) (human) (chain, as listed by the source limits assumed): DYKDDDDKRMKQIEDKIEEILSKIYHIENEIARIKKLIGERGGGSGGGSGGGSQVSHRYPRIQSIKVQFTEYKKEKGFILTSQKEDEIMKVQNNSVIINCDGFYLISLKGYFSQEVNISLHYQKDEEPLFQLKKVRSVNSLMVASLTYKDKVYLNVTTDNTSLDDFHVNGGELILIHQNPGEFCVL

B1: 10A07 (human) (antibody, V domains shown)
VH: EVQLVESGGVLVQPGGSLRLSCAASGFTFSSYIMTWVRQAPGKGLEWVSGISGSGGGTYYADSMKGRFTISRDNSKNTLYLQMNSLRVEDTAVYYCAKDRLGPITLVRGGYYYGMDVWGQGTTVTVSS
VL: DIQMTQSPSSLSASVGDRVTITCRASQSISDYLNWYQQKPGKAPKFLIYAASSLQSGVPSRFSGSGSGTDFTLTVSSLQPEDFATYYCQQSYSTPRTFGQGTRVEIKR
With B1 as the binder, how does the “Primary T-cell Assay IC50 nM (recombinant OX40L induced IL2 release from primary human T cells)” value read?
Its value is 0.83 nM.

B2: 2D10 (human) (antibody, human IgG4 S228P, kappa, V domains shown)
VH: EVQLVESGGGLVQPGGSLRLSCAASGFTFSNYAMNWVRQAPGKGLEWVSTISGSGGATRYADSVKGRFTISRDNSRNTVYLQMNSLRVEDTAVFYCTKDRLIMATVRGPYYYGMDVWGQGTTVTVSS
VL: DIQMTQSPSSLSASVGDRVTITCRASQSISSYLNWYQQKPGKAPNLLIYAASSLQSGVPSRFSGSGSETDFTLTISSLQPEDFATYYCQQSHSVSFTFGPGTKVDIKR
For B2, which “Primary T-cell Assay IC50 nM (recombinant OX40L induced IL2 release from primary human T cells)” value is on record?
The value was 0.81 nM.
